Measured values: PMC9361535
Values belong to the substance of their own block, whether it stands above or below them.

Tests used:
Assay in all cases: GFP-Trap pulldown, quantitative mass spectrometry (iBAQ)
[1] = target: HSPA6/7; conditions: cytoplasmic fraction of HeLa cells; read off a plot
[2] = target: MSRB3; conditions: cytoplasmic fraction of HeLa cells; read off a plot
[3] = target: PHLDA2; conditions: cytoplasmic fraction of HeLa cells; read off a plot
[4] = target: SPRYD3; conditions: cytoplasmic fraction of HeLa cells; read off a plot
[5] = target: DNAJA1; conditions: cytoplasmic fraction of HeLa cells; read off a plot
[6] = target: CBS; conditions: cytoplasmic fraction of HeLa cells; read off a plot
[7] = target: ASH2L (UniProt Q9UBL3); conditions: nuclear extracts of HeLa cells; read off a plot
[8] = target: PSIP1 (UniProt O75475); conditions: nuclear extracts of HeLa cells; read off a plot
[9] = target: ubiquitin (UniProt P62979); conditions: cytoplasmic fraction of HeLa cells; read off a plot
[10] = target: HSPA8 (UniProt P11142); conditions: cytoplasmic fraction of HeLa cells; read off a plot
[11] = target: DPY30 (UniProt Q9C005); conditions: nuclear extracts of HeLa cells; read off a plot
[12] = target: RBBP5 (UniProt Q15291); conditions: nuclear extracts of HeLa cells; read off a plot
[13] = target: KMT2B (UniProt Q9UMN6); conditions: nuclear extracts of HeLa cells; read off a plot
[14] = target: JunD (UniProt P17535); conditions: nuclear extracts of HeLa cells, read off a plot
[15] = target: WDR5 (UniProt P61964); conditions: nuclear extracts of HeLa cells; read off a plot
[16] = target: HCFC2 (UniProt Q9Y5Z7); conditions: nuclear extracts of HeLa cells; read off a plot
[17] = target: KMT2A (UniProt Q03164); conditions: nuclear extracts of HeLa cells, read off a plot
KMT2A, sequence (Q03164 whole entry): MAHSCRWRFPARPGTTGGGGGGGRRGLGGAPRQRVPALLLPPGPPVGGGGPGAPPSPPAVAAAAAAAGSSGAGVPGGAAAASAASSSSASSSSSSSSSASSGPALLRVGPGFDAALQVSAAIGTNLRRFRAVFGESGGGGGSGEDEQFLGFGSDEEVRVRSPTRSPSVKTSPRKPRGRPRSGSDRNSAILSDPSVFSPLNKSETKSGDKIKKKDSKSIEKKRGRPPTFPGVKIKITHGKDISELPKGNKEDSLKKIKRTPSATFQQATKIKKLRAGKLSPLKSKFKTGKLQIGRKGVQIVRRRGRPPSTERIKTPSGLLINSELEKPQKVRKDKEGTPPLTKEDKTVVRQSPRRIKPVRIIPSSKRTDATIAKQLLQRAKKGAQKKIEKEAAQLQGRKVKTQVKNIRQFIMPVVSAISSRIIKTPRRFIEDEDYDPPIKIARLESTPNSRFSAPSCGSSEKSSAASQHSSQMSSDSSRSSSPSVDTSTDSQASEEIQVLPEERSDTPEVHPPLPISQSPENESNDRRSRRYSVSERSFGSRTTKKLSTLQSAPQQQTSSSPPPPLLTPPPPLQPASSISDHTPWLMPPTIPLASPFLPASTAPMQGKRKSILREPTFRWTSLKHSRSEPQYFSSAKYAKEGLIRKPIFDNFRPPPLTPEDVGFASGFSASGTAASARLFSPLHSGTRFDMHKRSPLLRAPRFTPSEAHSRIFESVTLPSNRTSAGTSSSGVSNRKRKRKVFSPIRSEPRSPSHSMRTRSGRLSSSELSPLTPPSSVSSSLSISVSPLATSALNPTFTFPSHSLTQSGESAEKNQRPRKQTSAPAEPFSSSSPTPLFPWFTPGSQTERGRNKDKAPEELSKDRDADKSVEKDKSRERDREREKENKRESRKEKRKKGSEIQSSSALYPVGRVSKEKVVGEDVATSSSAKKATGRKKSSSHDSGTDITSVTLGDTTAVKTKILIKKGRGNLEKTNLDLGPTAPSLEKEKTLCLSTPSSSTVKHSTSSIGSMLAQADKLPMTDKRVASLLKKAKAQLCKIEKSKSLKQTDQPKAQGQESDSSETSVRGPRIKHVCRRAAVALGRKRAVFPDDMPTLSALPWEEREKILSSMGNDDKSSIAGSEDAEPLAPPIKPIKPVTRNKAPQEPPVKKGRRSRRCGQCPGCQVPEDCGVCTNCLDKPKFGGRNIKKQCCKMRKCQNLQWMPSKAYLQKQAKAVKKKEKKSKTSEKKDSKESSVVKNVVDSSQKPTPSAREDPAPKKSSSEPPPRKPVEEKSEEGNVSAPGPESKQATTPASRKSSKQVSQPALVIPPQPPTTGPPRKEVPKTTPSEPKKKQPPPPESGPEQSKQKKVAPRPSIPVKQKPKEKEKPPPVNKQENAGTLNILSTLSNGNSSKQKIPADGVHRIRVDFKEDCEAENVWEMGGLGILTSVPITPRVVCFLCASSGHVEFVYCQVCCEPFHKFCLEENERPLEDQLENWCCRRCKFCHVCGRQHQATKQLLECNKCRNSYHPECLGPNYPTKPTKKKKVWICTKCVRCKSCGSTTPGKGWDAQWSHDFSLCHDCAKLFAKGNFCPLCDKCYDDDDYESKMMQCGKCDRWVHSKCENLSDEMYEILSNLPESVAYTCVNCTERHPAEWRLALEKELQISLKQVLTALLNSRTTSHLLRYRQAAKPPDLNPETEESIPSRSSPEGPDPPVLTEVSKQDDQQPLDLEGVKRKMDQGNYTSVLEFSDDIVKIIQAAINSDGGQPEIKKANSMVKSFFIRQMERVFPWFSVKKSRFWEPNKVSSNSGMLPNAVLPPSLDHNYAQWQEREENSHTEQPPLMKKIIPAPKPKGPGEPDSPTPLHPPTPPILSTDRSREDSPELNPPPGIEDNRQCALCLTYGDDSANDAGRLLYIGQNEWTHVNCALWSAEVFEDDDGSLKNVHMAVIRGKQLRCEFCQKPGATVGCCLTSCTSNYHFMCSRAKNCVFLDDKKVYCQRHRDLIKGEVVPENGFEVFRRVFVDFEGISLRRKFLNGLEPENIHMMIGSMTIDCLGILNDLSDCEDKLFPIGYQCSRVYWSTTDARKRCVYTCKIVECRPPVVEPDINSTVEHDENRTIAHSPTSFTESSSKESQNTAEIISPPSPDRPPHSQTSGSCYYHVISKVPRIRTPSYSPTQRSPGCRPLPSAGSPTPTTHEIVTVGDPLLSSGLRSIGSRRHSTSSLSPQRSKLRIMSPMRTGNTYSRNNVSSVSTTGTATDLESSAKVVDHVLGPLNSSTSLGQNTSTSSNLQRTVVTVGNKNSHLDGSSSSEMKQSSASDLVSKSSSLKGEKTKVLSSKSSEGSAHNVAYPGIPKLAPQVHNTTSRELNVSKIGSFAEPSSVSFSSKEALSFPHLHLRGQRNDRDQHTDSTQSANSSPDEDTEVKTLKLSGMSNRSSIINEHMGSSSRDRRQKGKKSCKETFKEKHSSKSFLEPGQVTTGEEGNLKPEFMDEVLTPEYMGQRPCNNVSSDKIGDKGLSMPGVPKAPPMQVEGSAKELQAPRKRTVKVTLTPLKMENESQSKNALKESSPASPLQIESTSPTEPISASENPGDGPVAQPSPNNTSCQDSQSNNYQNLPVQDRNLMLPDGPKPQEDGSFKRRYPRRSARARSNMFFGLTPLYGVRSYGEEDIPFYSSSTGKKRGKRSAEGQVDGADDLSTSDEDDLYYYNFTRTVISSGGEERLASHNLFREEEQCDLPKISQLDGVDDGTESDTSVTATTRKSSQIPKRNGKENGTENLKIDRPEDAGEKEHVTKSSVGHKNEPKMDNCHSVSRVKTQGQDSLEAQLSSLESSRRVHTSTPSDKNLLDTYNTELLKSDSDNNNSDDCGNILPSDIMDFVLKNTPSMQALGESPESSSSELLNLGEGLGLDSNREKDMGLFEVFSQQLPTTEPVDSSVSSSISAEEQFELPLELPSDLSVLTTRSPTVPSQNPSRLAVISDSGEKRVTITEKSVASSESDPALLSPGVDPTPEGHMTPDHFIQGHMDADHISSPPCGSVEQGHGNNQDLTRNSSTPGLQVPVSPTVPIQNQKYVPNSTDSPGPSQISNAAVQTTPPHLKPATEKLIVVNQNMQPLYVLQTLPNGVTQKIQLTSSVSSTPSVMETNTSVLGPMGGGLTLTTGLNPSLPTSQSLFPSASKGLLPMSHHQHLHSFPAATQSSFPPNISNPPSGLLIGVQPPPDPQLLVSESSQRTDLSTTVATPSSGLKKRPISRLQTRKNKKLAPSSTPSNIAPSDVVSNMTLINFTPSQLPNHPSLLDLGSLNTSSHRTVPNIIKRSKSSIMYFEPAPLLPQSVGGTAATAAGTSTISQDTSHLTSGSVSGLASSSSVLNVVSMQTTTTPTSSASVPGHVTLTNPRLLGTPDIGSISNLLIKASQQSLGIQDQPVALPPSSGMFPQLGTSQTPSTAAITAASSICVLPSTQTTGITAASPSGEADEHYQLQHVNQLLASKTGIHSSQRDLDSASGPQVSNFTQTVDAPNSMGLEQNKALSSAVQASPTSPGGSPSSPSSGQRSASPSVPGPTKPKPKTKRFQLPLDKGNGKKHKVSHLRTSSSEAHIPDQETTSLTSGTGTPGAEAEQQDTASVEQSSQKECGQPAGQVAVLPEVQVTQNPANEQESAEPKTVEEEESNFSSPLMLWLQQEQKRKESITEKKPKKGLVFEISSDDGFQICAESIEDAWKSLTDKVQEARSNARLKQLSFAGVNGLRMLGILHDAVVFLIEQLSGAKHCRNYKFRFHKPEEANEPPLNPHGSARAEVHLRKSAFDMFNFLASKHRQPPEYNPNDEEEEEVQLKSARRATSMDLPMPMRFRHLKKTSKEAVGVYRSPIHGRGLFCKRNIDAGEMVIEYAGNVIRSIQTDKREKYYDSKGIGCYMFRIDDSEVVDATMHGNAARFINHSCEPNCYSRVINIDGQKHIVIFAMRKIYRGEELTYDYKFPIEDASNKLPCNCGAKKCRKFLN

JunD, sequence (P17535 whole entry): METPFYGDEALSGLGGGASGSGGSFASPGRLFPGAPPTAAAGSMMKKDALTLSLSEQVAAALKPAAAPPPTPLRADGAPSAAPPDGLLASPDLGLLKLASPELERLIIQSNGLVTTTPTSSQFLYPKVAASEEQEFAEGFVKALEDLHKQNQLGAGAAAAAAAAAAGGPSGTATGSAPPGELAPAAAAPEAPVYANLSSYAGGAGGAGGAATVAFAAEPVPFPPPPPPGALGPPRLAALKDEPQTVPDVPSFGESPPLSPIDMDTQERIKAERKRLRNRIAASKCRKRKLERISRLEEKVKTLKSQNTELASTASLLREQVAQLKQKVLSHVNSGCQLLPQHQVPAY
HCFC2, sequence (Q9Y5Z7 whole entry): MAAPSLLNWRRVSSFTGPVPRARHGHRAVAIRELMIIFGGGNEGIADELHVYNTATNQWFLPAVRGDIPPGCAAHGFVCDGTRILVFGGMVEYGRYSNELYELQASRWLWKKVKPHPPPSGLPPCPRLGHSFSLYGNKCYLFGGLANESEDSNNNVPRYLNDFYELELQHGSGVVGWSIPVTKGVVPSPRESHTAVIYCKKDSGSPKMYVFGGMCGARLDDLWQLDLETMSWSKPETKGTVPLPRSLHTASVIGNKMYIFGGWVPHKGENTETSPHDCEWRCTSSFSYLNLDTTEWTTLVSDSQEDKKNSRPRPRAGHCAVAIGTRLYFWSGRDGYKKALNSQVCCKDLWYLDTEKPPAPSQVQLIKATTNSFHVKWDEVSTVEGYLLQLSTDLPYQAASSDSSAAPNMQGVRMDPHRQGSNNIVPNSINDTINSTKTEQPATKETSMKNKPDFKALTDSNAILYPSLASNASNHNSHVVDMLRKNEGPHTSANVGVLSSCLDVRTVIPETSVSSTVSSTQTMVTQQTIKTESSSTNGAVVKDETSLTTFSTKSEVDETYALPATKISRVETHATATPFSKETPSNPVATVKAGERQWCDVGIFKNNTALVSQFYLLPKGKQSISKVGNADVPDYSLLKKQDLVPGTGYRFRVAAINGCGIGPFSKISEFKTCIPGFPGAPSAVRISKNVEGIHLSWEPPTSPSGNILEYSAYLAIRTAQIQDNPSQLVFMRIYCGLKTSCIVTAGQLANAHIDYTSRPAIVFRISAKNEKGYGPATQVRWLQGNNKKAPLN

Substance: WT menin-GFP (from UniProt O00255-2) R52G
other: stoichiometry [3]: 0.09
other: stoichiometry [2]: 0.05

Substance: WT menin-GFP (from UniProt O00255-2) E359K
other: stoichiometry [2]: 0.22

Substance: WT menin-GFP (from UniProt O00255-2) L168P
other: stoichiometry [1]: 0.075
other: stoichiometry [4]: 0.04
other: stoichiometry [5]: 0.045

Substance: WT menin-GFP (from UniProt O00255-2) E408Q
other: stoichiometry [3]: 0.12
other: stoichiometry [2]: 0.095
other: stoichiometry [6]: 0.055

Substance: WT menin-GFP (from UniProt O00255-2) R322H
other: stoichiometry [7]: 0.06
other: stoichiometry [8]: 0.014
other: stoichiometry [9]: 0.35
other: stoichiometry [10]: 0.26
other: stoichiometry [11]: 0.23
other: stoichiometry [12]: 0.076
other: stoichiometry [13]: 0.068
ratio to parent ([14]; parent: est. 1.0): 0.53
other: stoichiometry [14]: 0.053
other: stoichiometry [15]: 0.046
other: stoichiometry [3]: 0.045
other: stoichiometry [2]: 0.045
other: stoichiometry [16]: 0.014
ratio to parent ([17]; parent: est. 1.0): 0.8
other: stoichiometry [17]: 0.028

The remaining lines, values ahead:

other: stoichiometry [1]: 0.04
other: stoichiometry [2]: 0.055
Substance: WT menin-GFP (from UniProt O00255-2) Q141R

other: stoichiometry [1]: 0.11
Substance: WT menin-GFP (from UniProt O00255-2) L264P

other: stoichiometry [3]: 0.06
other: stoichiometry [2]: 0.055
Substance: WT menin-GFP (from UniProt O00255-2) E366D
